The results in this text go back to CN115246884A (SHANGHAI JUNSHI BIOSCIENCES CO LTD; JUNMENG BIOSCIENCES CO …, dated 2022).

Experiment [1] deals with MAB-BA-231细胞表面人PD-L1 (human) (UniProt Q9NZQ7). Description: FACS on cells carrying human PD-L1.
A further experiment addresses 人PD-L1重组蛋白 (human) (UniProt Q9NZQ7). The experiment is described as follows: Biacore SPR, AHC capture of antibody, PD-L1 as analyte 0.78125-12.5 nM. (In general: Surface plasmon resonance follows binding to a sensor surface in real time, without labels.)
Another experiment concerns the target T1, B7H4重组蛋白 (UniProt Q7Z7D3 29-258, limits assumed).
T1 sequence (looked up): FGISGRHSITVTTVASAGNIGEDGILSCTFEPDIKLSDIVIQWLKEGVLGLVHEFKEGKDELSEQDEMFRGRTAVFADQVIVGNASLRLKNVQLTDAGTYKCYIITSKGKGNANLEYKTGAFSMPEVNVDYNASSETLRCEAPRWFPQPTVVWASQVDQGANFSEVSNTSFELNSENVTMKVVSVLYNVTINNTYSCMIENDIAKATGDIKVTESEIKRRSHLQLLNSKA
The experiment is described as follows: ELISA on recombinant proteins.

A further experiment concerns the target T2, CTLA4重组蛋白 (UniProt P16410 36-161, limits assumed).
T2 sequence (looked up): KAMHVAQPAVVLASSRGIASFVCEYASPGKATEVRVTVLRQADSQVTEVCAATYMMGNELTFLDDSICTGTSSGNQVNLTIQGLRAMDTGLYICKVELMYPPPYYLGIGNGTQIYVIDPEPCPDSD
The experiment is described as follows: ELISA on recombinant proteins. A general note: An ELISA detects its analyte on a solid surface through an enzyme-linked reagent.

The next experiment has as its target CD28重组蛋白 (UniProt P10747 19-152, limits assumed). The experiment is described as follows: ELISA on recombinant proteins.
A further experiment concerns the target T3, ICOS重组蛋白 (UniProt Q9Y6W8 21-140, limits assumed).
T3 sequence (looked up): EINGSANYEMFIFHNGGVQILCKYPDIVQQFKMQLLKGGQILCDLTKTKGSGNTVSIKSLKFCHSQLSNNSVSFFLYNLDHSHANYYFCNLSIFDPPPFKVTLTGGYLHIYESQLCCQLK
The experiment is described as follows: ELISA on recombinant proteins.

Another experiment concerns the target T4, PD-1重组蛋白 (UniProt Q15116 25-167, limits assumed).
T4 construct: also called 受体PD-1
Description: ELISA on recombinant proteins.

In the next experiment the target is T5, B7H3重组蛋白 (UniProt Q5ZPR3 29-461, limits assumed).
T5 sequence (looked up): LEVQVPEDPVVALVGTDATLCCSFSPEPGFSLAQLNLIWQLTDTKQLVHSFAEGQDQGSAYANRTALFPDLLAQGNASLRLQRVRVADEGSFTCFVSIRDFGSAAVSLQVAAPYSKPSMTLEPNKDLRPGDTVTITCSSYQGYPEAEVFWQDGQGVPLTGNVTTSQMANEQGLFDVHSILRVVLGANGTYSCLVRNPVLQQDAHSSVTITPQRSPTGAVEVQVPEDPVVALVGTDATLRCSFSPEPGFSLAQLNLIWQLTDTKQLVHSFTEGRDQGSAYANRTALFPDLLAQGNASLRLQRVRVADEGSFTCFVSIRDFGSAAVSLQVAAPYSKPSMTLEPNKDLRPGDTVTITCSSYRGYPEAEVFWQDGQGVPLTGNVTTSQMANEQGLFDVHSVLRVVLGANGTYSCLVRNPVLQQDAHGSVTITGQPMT
Description: ELISA on recombinant proteins.

The target in another experiment is T6, MAB-BA-231细胞表面人PD-L1 (human, UniProt Q9NZQ7 19-290).
T6 construct: whole, on cells; also called 人PD-L1高表达细胞株(MBA-MA-231)
T6 sequence (Q9NZQ7 19-290): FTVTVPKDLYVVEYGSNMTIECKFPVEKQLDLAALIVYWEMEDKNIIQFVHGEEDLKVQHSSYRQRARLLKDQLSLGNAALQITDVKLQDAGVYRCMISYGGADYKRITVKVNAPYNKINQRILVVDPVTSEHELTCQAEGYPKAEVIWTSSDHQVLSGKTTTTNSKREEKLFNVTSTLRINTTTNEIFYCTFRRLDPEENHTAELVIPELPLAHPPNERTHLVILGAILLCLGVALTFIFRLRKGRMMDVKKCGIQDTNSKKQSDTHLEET
Description: FACS on MAB-BA-231 cells carrying human PD-L1.

The target of experiment [2] is T7, 人PD-L1重组蛋白 (human, UniProt Q9NZQ7 19-238).
T7 construct: also called 重组人PD-L1; 液相中游离PD-L1
T7 sequence (Q9NZQ7 19-238 limits assumed): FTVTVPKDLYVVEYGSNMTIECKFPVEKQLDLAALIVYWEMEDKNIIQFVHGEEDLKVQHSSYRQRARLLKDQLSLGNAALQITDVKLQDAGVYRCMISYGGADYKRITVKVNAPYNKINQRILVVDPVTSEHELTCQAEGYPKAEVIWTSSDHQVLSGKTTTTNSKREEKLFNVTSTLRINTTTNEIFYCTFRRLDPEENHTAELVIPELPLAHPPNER
The experiment is described as follows: ELISA, inhibition of recombinant human PD-L1 binding to PD-1.

The target in experiment [3] is T7, 人PD-L1重组蛋白. The experiment is described as follows: Biacore SPR, AHC capture of antibody, PD-L1 as analyte 0.78125-12.5 nM.
For a further experiment, the target named is His标签人PD-L1抗原 (human) (UniProt Q9NZQ7). The experiment is described as follows: ELISA, His-tagged human PD-L1 coated at 2.0 μg/mL; ratio = EC50 of chimeric antibody C1 (chC1) / EC50 of humanised antibody x 100%.
In the next experiment the target is 生物素化的PD-L1抗原 (UniProt Q9NZQ7). The experiment is described as follows: competition ELISA, biotinylated PD-L1 on streptavidin, competitor PD-1 mFc 2.0 μg/mL; ratio = IC50 of chimeric antibody / IC50 of humanised antibody x 100%.

Sequence of CD28重组蛋白 (P10747 19-152 limits assumed): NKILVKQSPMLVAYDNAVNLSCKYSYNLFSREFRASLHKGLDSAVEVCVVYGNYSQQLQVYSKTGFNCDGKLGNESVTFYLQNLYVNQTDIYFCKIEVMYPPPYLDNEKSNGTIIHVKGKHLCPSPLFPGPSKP
T4 sequence (Q15116 25-167 limits assumed): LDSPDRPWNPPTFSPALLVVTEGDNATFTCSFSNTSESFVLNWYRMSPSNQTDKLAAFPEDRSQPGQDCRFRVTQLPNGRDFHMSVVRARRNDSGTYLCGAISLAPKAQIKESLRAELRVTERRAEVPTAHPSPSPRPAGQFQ

Broadly, the EC50 is the midpoint of the concentration-response curve. The low end stands for a more potent agent, the high end for a less potent agent. A word on the Kd: it is a measure of binding affinity in units of concentration. Regarding 对照抗体KN035 (Envafolimab) (Fc fusion), the EC50 in experiment [1] stood at 8.8 ng/mL. In the experiment with 人PD-L1重组蛋白 (human), this molecule yielded a Ka of 2.47e+09 M⁻¹ and an equilibrium dissociation constant (Kd) of 0.405 nM.

B1: 单域嵌合抗体(VHH-hFc)chC1 (Fc fusion)
heavy: QVQLQESGGGSVQTGGSLRLSCAASGAAPCMAWFRQAPGKEREGVAASVRGGLSPYYADSVKGRFTISHDIPKNTMYLQMNSLQPDDTALYYCAARATFYRCEGDASSYTYWGQGTQVTVSS
notes: VHH of C1 cloned upstream of the human IgG1 Fc gene and expressed in 293F cells; also called 嵌合抗体chC1; 嵌合抗体C1; not shown: Fc segment of the human IgG1 heavy chain constant region
As usually defined, the IC50 is the concentration that gives 50% inhibition. As usually defined, the koff is the first-order rate constant of dissociation. What is called kon is a measure of how fast the partners come together. Higher therefore signals faster complex formation. Turning to B1, the binding result with B7H4重组蛋白, in the experiment with CTLA4重组蛋白, with CD28重组蛋白, with ICOS重组蛋白, in the experiment with PD-1重组蛋白 and in the experiment with B7H3重组蛋白 was “no binding” each time. This molecule also returned an EC50 with MAB-BA-231细胞表面人PD-L1 of 8.1 ng/mL. Moreover, the half-maximal inhibitory concentration (IC50) with 人PD-L1重组蛋白 [2] came to 590 ng/mL. Moreover, in the experiment with 人PD-L1重组蛋白 [3], the Ka was determined as 3.16e+09 M⁻¹. The same molecule registered a dissociation constant (Kd) in the experiment with 人PD-L1重组蛋白 [3] of 0.317 nM. The koff with 人PD-L1重组蛋白 [3] came to 0.000462 s⁻¹. In the experiment with 人PD-L1重组蛋白 [3], this molecule registered a kon of 1.46e+06 M⁻¹ s⁻¹.

B2: 人源化抗PD-L1单域抗体C1-hu1 (Fc fusion, not shown: a dimerising Fc or GST)
heavy: EVQLLESGGGLVQPGGSLRLSCAASGAAPCMAWFRQAPGKGLEGVSASVRGGLSPYYADVKGRFTISHDIPKNTMYLQMNSLRAEDTAVYYCAARATFYRCEGDASSYTYWGQGTLVTVSS
Regarding B2, the 相对结合活性，% with His标签人PD-L1抗原 (human) turned out to be 45.5%. The 相对竞争抑制活性，% with 生物素化的PD-L1抗原 was found to be 53.4%.

B3: 人源化抗PD-L1单域抗体C1-hu16 (Fc fusion, not shown: a dimerising Fc or GST)
heavy: EVQLVESGGGLVQPGGSLRLSCAASGAAPCMAWFRQAPGKEREGVAASVRGGLSPYYADVKGRFTISHDIPKNTMYLQMNSLRAEDTAVYYCAARATFYRCEGDASSYTYWGQGTLVTVSS
Regarding B3, in the experiment with His标签人PD-L1抗原 (human), the 相对结合活性，% is 76.6%. Moreover, the 相对竞争抑制活性，% in the experiment with 生物素化的PD-L1抗原 worked out at 107%.

B4: 人源化抗PD-L1单域抗体C1-hu2 (Fc fusion, not shown: a dimerising Fc or GST)
heavy: EVQLLESGGGLVQPGGSLRLSCAASGAAPCMAWFRQAPGKGLEGVSASVRGGLSPYYADVKGRFTISHDIPKNTLYLQMNSLRAEDTAVYYCAARATFYRCEGDASSYTYWGQGTLVTVSS
As for B4, in the experiment with His标签人PD-L1抗原 (human), the 相对结合活性，% is 56.5%. Besides, the 相对竞争抑制活性，% in the experiment with 生物素化的PD-L1抗原 was determined as 73.3%.

B5: 人源化抗PD-L1单域抗体C1-hu15 (Fc fusion, not shown: a dimerising Fc or GST)
heavy: EVQLVESGGGLVQPGGSLRLSCAASGAAPCMAWFRQAPGKEREGVAASVRGGLSPYYADVKGRFTISHDNSKNTMYLQMNSLRAEDTAVYYCAARATFYRCEGDASSYTYWGQGTLVTVSS
Regarding B5, the 相对竞争抑制活性，% with 生物素化的PD-L1抗原 came to 68.1%.

B6: 人源化抗PD-L1单域抗体C1-hu5 (Fc fusion, not shown: a dimerising Fc or GST)
heavy: EVQLVESGGGLVQPGGSLRLSCAASGAAPCMAWFRQAPGKGLEGVSASVRGGLSPYYADVKGRFTISHDIPKNTMYLQMNSLRAEDTAVYYCAARATFYRCEGDASSYTYWGQGTLVTVSS
On to B6, for which, in the experiment with His标签人PD-L1抗原 (human), the 相对结合活性，% amounted to 62.5%. For the same molecule, in the experiment with 生物素化的PD-L1抗原, the 相对竞争抑制活性，% is 61.7%.

B7: 人源化抗PD-L1单域抗体C1-hu11 (Fc fusion, not shown: a dimerising Fc or GST)
heavy: EVQLVESGGGLVQPGGSLRLSCAASGAAPCMAWFRQAPGKGREGVAASVRGGLSPYYADVKGRFTISHDIPKNTMYLQMNSLRAEDTAVYYCAARATFYRCEGDASSYTYWGQGTLVTVSS
For the molecule B7, the 相对结合活性，% in the experiment with His标签人PD-L1抗原 (human) worked out at 81.3%. In addition, the 相对竞争抑制活性，% with 生物素化的PD-L1抗原 worked out at 89.1%.
